The values below come from paper PMC10058238, “Mechanism of sphingolipid homeostasis revealed by structural analysis of Arabidopsis SPT-ORM1 complex” (Science Advances, 2023).

Substrate in data set [1]: N[C@@H](CO)C(=O)O
The data set can be described thus: purified protein. The following applies: 100 μM palmitoyl-CoA, 25 μM PLP, pH 7.5, 30 °C, active site in LCB2a/LCB1.

Substrate in data set [2]: CCCCCCCCCCCCCCCC(=O)SCCNC(=O)CCNC(=O)[C@H](O)C(C)(C)COP(=O)(O)OP(=O)(O)OC[C@H]1O[C@@H](n2cnc3c(N)ncnc32)[C@H](O)[C@@H]1OP(=O)(O)O
The experiment in a line: purified protein. The format is biochemical, Arabidopsis thaliana. Particulars: 100 mM L-serine, 25 μM PLP, pH 7.5, 30 °C, active site in LCB2a/LCB1.

B1: AtSPT-ORM1 complex (LCB1, LCB2a, SPTssa, ORM1) (Arabidopsis thaliana) (protein)
chain 1: MITIPYLTAVSTYFSYGLLFAFGQLRDFFRRFIDWWFTSNLQGYAPICLGHEDFYIRRLYHRIQDCFERPISSAPDAWFDVVERYSNDNNKTLKRTTKTSRCLNLGSYNYLGFGSFDEYCTPRVIESLKKFSASTCSSRVDAGTTSVHAELEECVTRFVGKPAAVVFGMGYATNSAIIPVLIGKGGLIISDSLNHSSIVNGARGSGATIRVFQHNTPSHLERVLREQIAEGQPRTHRPWKKIIVVVEGIYSMEGEICHLPEVVAICKKYKAYVYLDEAHSIGAIGKTGKGICELLGVDTADVDVMMGTFTKSFGSCGGYIAGSKELIQYLKHQCPAHLYATSIPTPSAQQIISAIKVILGEDGSNRGAQKLARIRENSNFFRAELQKMGFEVLGDNDSPVMPIMLYNPAKIPAFSRECLRQKVAVVVVGFPATPLLLARARICISASHSREDLIRALKVISKVGDLSGIKYFPAEPKKIEQSKNDIKLD
chain 2: MANLYVKAVPPPDMNRNTEWFMYPGVWTTYMLILFFGWLVVLSVSGCSPGMAWTVVNLAHFVVTYHSFHWMKGTPFADDQGIYNGLTWWEQMDNGQQLTRNRKFLTLVPVVLYLIASHTTDYRHPWLFLNTLAVMVLVVAKFPNMHKVRIFGINGDK
chain 3: MASNLVEMFNAALNWVTMILESPSARVVLFGVPIRGHFFVEGLLGVVIIILLTRKSYKPPKRPLTEQEIDELCDEWVPEPLIPPITEDMKHEPPVLESAAGPHTTVNGKDVVNFASANYLGLIGHEKLLESCTSALEKYGVGSCGPRGFYGTIDVHLDCETRISKFLGTPDSILYSYGLSTMFSTIPCFCKKGDVIVADEGVHWGIQNGLQLSRSTIVYFKHNDMESLRITLEKIMTKYKRSKNLRRYIVAEAVYQNSGQIAPLDEIVKLKEKYRFRVILDESNSFGVLGRSGRGLAEHHSVPIEKIDVVTAAMGHALATEGGFCTGNARIIDYQRLSSSGYVFSASLPPYLASAAITAIDVIDQNPDMLVKLKQNVALLWKGLSDIKGMSLTSNRESPIVFLKLEKSSGSAKDDLLLLEKMADRALKEDSLLVVSSKRSFLDKCRLPVGIKLYVSAGHSESDLLKASESLKRLASELLLKS
notes: full-length codon-optimized cDNAs; N-terminal Flag on SPTssa, other chains untagged; HEK293F, GDN; dimer of 1:1:1:1 protomers; endogenous ceramide copurifies; with Long chain base biosynthesis protein 1; Serine palmitoyltransferase small subunit A
In general, Km refers to the concentration of substrate that gives half-maximal velocity. On to B1, for which, in “purified protein [1]”, the Km stood at 10.44 ± 0.88 mM. Also, in the data set “purified protein [2]”, the K0.5 is 69.05 ± 6.13 µM.

B2: AtSPT complex (LCB1, LCB2a, SPTssa) (Arabidopsis thaliana) (protein)
chain 1: MITIPYLTAVSTYFSYGLLFAFGQLRDFFRRFIDWWFTSNLQGYAPICLGHEDFYIRRLYHRIQDCFERPISSAPDAWFDVVERYSNDNNKTLKRTTKTSRCLNLGSYNYLGFGSFDEYCTPRVIESLKKFSASTCSSRVDAGTTSVHAELEECVTRFVGKPAAVVFGMGYATNSAIIPVLIGKGGLIISDSLNHSSIVNGARGSGATIRVFQHNTPSHLERVLREQIAEGQPRTHRPWKKIIVVVEGIYSMEGEICHLPEVVAICKKYKAYVYLDEAHSIGAIGKTGKGICELLGVDTADVDVMMGTFTKSFGSCGGYIAGSKELIQYLKHQCPAHLYATSIPTPSAQQIISAIKVILGEDGSNRGAQKLARIRENSNFFRAELQKMGFEVLGDNDSPVMPIMLYNPAKIPAFSRECLRQKVAVVVVGFPATPLLLARARICISASHSREDLIRALKVISKVGDLSGIKYFPAEPKKIEQSKNDIKLD
chain 2: MASNLVEMFNAALNWVTMILESPSARVVLFGVPIRGHFFVEGLLGVVIIILLTRKSYKPPKRPLTEQEIDELCDEWVPEPLIPPITEDMKHEPPVLESAAGPHTTVNGKDVVNFASANYLGLIGHEKLLESCTSALEKYGVGSCGPRGFYGTIDVHLDCETRISKFLGTPDSILYSYGLSTMFSTIPCFCKKGDVIVADEGVHWGIQNGLQLSRSTIVYFKHNDMESLRITLEKIMTKYKRSKNLRRYIVAEAVYQNSGQIAPLDEIVKLKEKYRFRVILDESNSFGVLGRSGRGLAEHHSVPIEKIDVVTAAMGHALATEGGFCTGNARIIDYQRLSSSGYVFSASLPPYLASAAITAIDVIDQNPDMLVKLKQNVALLWKGLSDIKGMSLTSNRESPIVFLKLEKSSGSAKDDLLLLEKMADRALKEDSLLVVSSKRSFLDKCRLPVGIKLYVSAGHSESDLLKASESLKRLASELLLKS
notes: full-length codon-optimized cDNAs; N-terminal Flag on SPTssa, other chains untagged; HEK293F, GDN; without ORM1; with Serine palmitoyltransferase small subunit A
Consider B2, for which the Michaelis constant (Km) in “purified protein [1]” was 7.33 ± 0.65 mM. In addition, the K0.5 in the data set “purified protein [2]” worked out at 8.29 ± 0.80 µM.
